The source of these data is PMC10830420, “Structures, functions and adaptations of the human LINE-1 ORF2 protein” (Nature, 2023).

For orientation: Km means the concentration of substrate that gives half-maximal velocity.

For the data set, the system named is Nc1ncnc2c1ncn2[C@H]1C[C@H](O)[C@@H](COP(=O)(O)OP(=O)(O)OP(=O)(O)O)O1. Description: Single nucleotide (dATP) incorporation kinetics, HERV-K RT. In kind it is biochemical, human. The settings on record: 20-nt DNA primer, HERV-K RT 12 nM. As for the experimental part:
Extended Data Fig. 5 Comparative enzymology of ORF2p RT with HIV-1 and HERV-K. a, Single nucleotide incorporation kinetic curves and parameters of dATP with 36-nt RNA or DNA template and 20-nt DNA primer with ORF2p core (33 nM), HIV-1 RT (4 nM) and HERV-K RT (12 nM). For each enzyme, Michaelis-Menten parameter kcat/KM is nearly identical on both templates (n = 3 (DNA template) and n = 4 (RNA template) independent samples over 2 independent experiments; data represented as mean ± SD). b, Comparison of HIV-1 RT and ORF2p in extension of very short (5–10 nt) primers, pre-annealed to DNA and RNA templates. ORF2p extends all DNA and RNA primer lengths, with somewhat reduced efficiency at 5 nt and, to a lesser extent, 6 nt. […] ORF2p also makes NTA (+) and template jumping/switching (##) larger products; more visible on longer exposure. […] When all products are quantified, HIV-1 extends 21–37% of primers, and this is roughly halved by the heparin trap; ORF2p extends ~10–18% of primers and is unaffected by the trap. […] Asterisk (*) Cy5-5’-label on primer. n = 1 quantified samples shown representative of two independent experiments. […]

Consider HERV-K RT (Homo sapiens), for which the Km came to 4.3 ± 0.1 nM (other: DNA template 36-nt) and 9.5 ± 0.1 nM (other: RNA template 36-nt).
